The target in the test is Ty1c CA(F323S) (S. cerevisiae). In words: SEC-MALS; individual proteins, 12.5-200 µM, Superdex INCREASE 200 10/300 GL at 298 K, 50 mM Tris-HCl, 800 mM NaCl, 0.5 mM TCEP, 3 mM NaN3, pH 8.5.

Usually stoichiometry N stands for the number of molecules, sites or subunits per partner or assembly.

Ty1c CA(F323S) (domain or fragment): the stoichiometry N came out at 2.

(Values after paper PMC12530519.)
